From a protein production outcome set (Wang et al. 2014)

Experiment: label from the status in PepcDB records

MQLAINKIYRRIFISMDTGVSDHGIEIIGVDPIPGTSRIMGPWKMTVFWSMASASALTPLIGYLLYPLGLIDMLIAISIAFLIGFVPVGIFSEMGRTIPVPAMIISRKTLGYASSSVMSLIFTFVNLGWFGLNDITGGLILASVTSSSPIIWISFMAIVQIMLVLFGAKYLEKFYRYTAILLVFSYGILTYLLFRVYRPDMYAVLHPSTAVNWGSAIGLVLAFSILAWAYKVSTISRFARKREAGEPALERSGFFMAPSIGIIVPVYVMGSLGLISEAAAENWNLAAVRFSGLGSIGGAVAIIASIGASLAIIHTNSMNLYPATADLLSAIEGLFNKRLRKFAQPISTAILGTLGAVLAYAGILNYASGFLNLSGSIIFPFTFVLIADWFMMNRHSANSADFYSIPKNGLGNVNLAGISGLIVGVILNLIHINLLNALFLYVPQDIFGSLAGTAVFILVLKAVQKKQAAQEENRSDTVAE
protein production: failed

MLKKEYLKNPYLVLFAMIILAYVFSVLCRFYWIWWASEFNEYFFNNQLMIISNDGYAFAEGARDMIAGFHQPNDLSYYGSSLSTLTYWLYKITPFSFESIILYMSTFLSSLVVIPIILLANEYKRPLMGFVAALLASVANSYYNRTMSGYYDTDMLVIVLPMFILFFMVRMILKKDFFSLIALPLFIGIYLWWYPSSYTLNVALIGLFLIYTLIFHRKEKIFYIAVILSSLTLSNIAWFYQSAIIVILFALFALEQKRLNFMIIGILGSATLIFLILSGGVDPILYQLKFYIFRNDESANLTQGFMYFNVNQTIQEVENVDFSEFMRRISGSEIVFLFSLFGFVWLLRKHKSMIMALPILVLGFLALKGGLRFTIYSVPVMALGFGFLLSEFKAILVKKYSQLTSNVCIVFATILTLAPVFIHIYNYKAPTVFSQNEASLLNQLKNIANREDYVVTWWDYGYPVRYYSDVKTLVDGGKHLGKDNFFPSFALSKDEQAAANMARLSVEYTEKSFYAPQNDILKSDILQAMMKDYNQSNVDLFLASLSKPDFKIDTPKTRDIYLYMPARMSLIFSTVASFSFINLDTGVLDKPFTFSTAYPLDVKNGEIYLSNGVVLSDDFRSFKIGDNVVSVNSIVEINSIKQGEYKITPIDDKAQFYIFYLKDSAIPYAQFILMDKTMFNSAYVQMFFLGNYDKNLFDLVINSRDAKVFKLKI
protein production: failed

SDESGMRTYVRTLSFILSKAVADILPGSKLFIEHSLSNGYYCQIKNAHMITPGEIVRIKERMESLIVADIPFRAHCERTEEVAAMFRSMGYEDKADLLETKGMP
protein production: failed

MSLGALPTAEDIDAVVLDFDGTQTDDRVLIDSDGREFVSVHRGDGLGIAALRKSGLTMLILSTEQNPVVAARARKLKIPVLHGIDRKDLALKQWCEEQGIAPERVLYVGNDVNDLPCFALVGWPVAVASAHDVVRGAARAVTTVPGGDGAIREIASWILGPSLDSLDKEGHHHHHH
protein production: not failed

MTDKRGNNGKTGLLFPAIFTIFVSIYAAGNYYVGLRFFQSIQSLIEPYSLFYWSGYAFLVISLFAGRLGKRFYPGYVNDLFAVTGNYWVGAVYYSLLIWAGIDVLHFLTSLIFPATRIIKYPSFYFGLAVLLLVFLLLLYGTWNARHPRIVHYDITIKKSVPDLPELHAVMVSDIHLGLVVDKDRLKEMVNRINELDPDVVFLAGDTIDEDVRLFASNKMPEILKKLKSRYGVYAVLGNHEYIGGNNELAVEYLQQAGIHVLVDKCIKVNNHFYVAGRDDRVAGRMNGKKRLELSRLVDGIDHTLPIILLDHQPINLKEGQLNGIDLQLSGHTHAGQFFPNTLISKRVFENSWGYLKKGECQIIVSAGFGTWGPPIRIGSNSEITDIKISFV
protein production: failed

MWQLLSRLNKNLVLTIPAMMAAGFVFGLVTETGFLKELIIPFTFLMVYPMMVTLKLKKVLEGGDGKAQLFTQFINFAVVPFVAFGLGRLFFADRPYMALGLLLAALVPTSGMTISWTGFARGNLEAAVKMTVVGLILGSIATPFYVQALMGAHVEVDMTGIMKQIAVIVFLPMAVGYATQRYLIAKHGQKGFQEQWAPRFPCLSTLGVLGIVFIAIALKAQAIAARPQDLLAILLPLAILYGINYSLSTVVGRLFLPRGDAIALAYGTVMRNLSIALAVAMNAFGKAGSDAALVIALAYIIQVQSAAWYVKFTGTLFGEAPAPSCPAPRRN
protein production: failed

MKTFEVMIQTDSKGYLDAKFGGNAPKAFLNSNGLPTYSPKISWQKVEGAQSYALELIDHDAQKVCGMPFVHWVVGNIAHNVLEENASMMDKRIVQGVNSLTQGFIRSPLNESEKQRSNLNNSVYIGPMPPNGDHHYLIQVYALDIPKLALKAPFFLGDLHDKMRNHIIAIGRKEFLYKQFVRK
protein production: not failed
